“Also recorded” adds a separate entry of the source.
Key:
[1] = system: hemocoagulase of Agkistrodon acutus; assay: effect of PMSF on the agglutination time of the hemocoagulase; type: biochemical
Experimental: (§1) 1% bovine fibrinogen (Sigma Company) solution was prepared with physiological saline.
(§2) The operational steps of the experiment were as follows:
(§3) (1) 2 ml 1% bovine fibrinogen solution was kept at constant temperature of 37° C. for 5 min;
(§4) (2) 3 tubes were respectively marked with 1 #, 2 #, 3 #, then 200 μl hemocoagulase solution (5 u/ml) diluted one time with distilled water was added into each of 3 tubes;
(§5) (3) 10 μl distilled water was added into tube 1#, 10 μl isopropanol was added into tube 2#, and 10 μl PMSF was added into tube 3#, and the tubes were kept at constant temperature of 37° C. in water bath for 5 min;
(§6) (4) Observations of the agglutination experiments were carried out separately in the order of the numbering of the above tubes. 200 μl 1% bovine fibrinogen solution at constant temperature was added into each of the tubes respectively, followed by counting time immediately and shaking the tube gently; then the tube was kept to stand in water bath of 37° C. The agglutination reaction was observed. When the solution was completely coagulated, time-counting was finished.

[2] = isoelectric focusing electrophoresis analysis; type: physicochemical
Experimental: (§7) The above dialyzed enzyme solution was loaded on a pre-equilibrated DEAE-Sepharose Fast Flow anion exchange chromatography column, and the column was eluted with 0.01M, pH7.4 PBS. Then, the stepwise elution was conducted with 0.01M, pH7.4 PBS containing 0.02M, 0.04M, 0.06M, 1.0M NaCl respectively, and the second eluting peak of 0.06M NaC1 eluent was collected to obtain 1,050 ml of eluent. […] The 1,050 ml eluent was ultra-filtrated to 135 ml by Millipore Pellicon 2 tangential flow ultra-filter (0.1M^2 cut off 5 k membrane). The 135 ml ultra-filtrated solution was poured into a dialysis bag and dialyzed against deionized water for 24 hours, and the deionized water was changed 3 times during the dialysis. After dialysis, the volume of the enzyme solution is 159 ml, and the determined content of the total protein in the solution is 240 mg, the determined specific activity of the enzyme is 195 u/mg protein and a final yield of 0.8%. The protein has a HPLC purity of 98.2%, and two protein bands were shown by reduced SDS-PAGE with the molecular weight of about 15 kDa and 14.5 kDa, respectively. The enzyme has an isoelectric point(pI) of 5.5 by isoelectric focusing electrophoresis analysis.

bovine fibrinogen [3] = assay: enzymatic activity assay (bovine fibrinogen assay or normal human plasma assay); type: biochemical; conditions: hemocoagulase of Example 2 further purified by HPLC
Experimental: as §7, with “The protein has a HPLC purity of 98.2%, and two protein bands were shown by reduced SDS-PAGE with the molecular weight of about 15 kDa and 14.5 kDa, respectively. The enzyme has an isoelectric point(pI) of 5.5 by isoelectric focusing electrophoresis analysis.” left out
1 ml 1.0% bovine fibrinogen (Sigma company) prepared with physiological saline was added to a tube, kept at 37±0.5° C. in water bath for 3 min, followed by adding 1 ml 37±0.5° C. preheated enzymatic solution to be determined was added into the tube while counting time immediately; if white flocs appeared in the bovine fibrinogen solution by shaking it within 120±30 seconds, the activity unit of the enzymatic solution is determined to be 1 u/ml. […]

bovine fibrinogen [4] = assay: agglutination experiment, time to complete coagulation of bovine fibrinogen solution; type: biochemical; conditions: 200 μl hemocoagulase solution (5 u/ml), 200 μl 1% bovine fibrinogen, 37° C.
Experimental: as §1, §2, §3, §4, §5, §6

human fibrinogen = assay: hydrolyzing human fibrinogen with the hemocoagulase, SDS-PAGE; type: biochemical; conditions: for band of alpha subunit of human fibrinogen: hemocoagulase 1 unit, 37° C.
Experimental: A 4 mg/ml human fibrinogen solution was prepared with 50 mM Tris-HCl buffer solution(pH 7.4). 0.5 ml human fibrinogen solution were respectively added into each of 5 tubes; 1 activity unit of the purified hemocoagulase was separately added into each of 4 tubes according to 4 different time intervals of heat preservation time for hydrolyzing, and the tubes were kept at 37° C. in water bath for 4 h, 2 h, 1 h and 0.5 h, respectively; after that, SDS-PAGE was carried out immediately to observe the hydrolyzing degree of the human fibrinogen. Meanwhile, another tube containing 0.5 ml of the human fibrinogen solution was kept at 37° C. in water bath for 4 h as a control.

| Molecule | Agglutination time ([1]; 10 μl PMSF (4 mg/ml in isopropanol), 200 μl hemocoagulase solution (5 u/ml), 200 μl 1% bovine fibrinogen, 37° C.) | inhibition of the activity of the hemocoagulase ([1]; 100 ppm PMSF) | isoelectric point (pI) [2] | enzyme activity of the solution (bovine fibrinogen [3]) | Agglutination time (bovine fibrinogen [4]; 10 μl distilled water) | Agglutination time (bovine fibrinogen [4]; 10 μl isopropanol) | hydrolysis of the alpha chain (alpha subunit) of human fibrinogen (human fibrinogen) | band of alpha subunit of human fibrinogen (human fibrinogen; treated for 0.5 h and 1 h) | band of alpha subunit of human fibrinogen (human fibrinogen; treated for 2 h and 4 h) |
| --- | --- | --- | --- | --- | --- | --- | --- | --- | --- |
| O=S(=O)(F)Cc1ccccc1 [PMSF, Phenylmethanesulfonyl fluoride] | > 600 s | completely inhibits |  |  |  |  |  |  |  |
| hemocoagulase (protein) chain 1: DCSSGWSSYEGHCYKVFKQSKTWADAESFCTKQVNGGHLVSLESSGEADFVGQLLAQKLKSAKLHVWLGLRAQNKEKQCSLQWSDGSSLSYENWLEEESKKCLGVHLETGFHKWENFYCEQQDPFVCEA chain 2: DCPSDWSSYEGHCYKPFNEPKNWADAENFCTKQHTGGHLVSFQSTEEADFVVKLAFQTFDYGLFWFGLSKLWNQCNWQWSNAAMLKYTDWAEESYCVYFKSTNNKWRSLTCRMLANFVCEFQA |  |  | 5.5 | 10 u/ml | 50 s | 50 s | able to hydrolyze the alpha chain of human fibrinogen; also recorded: has the function of hydrolyzing the alpha subunit of the human fibrinogen | became gradually light | disappeared completely |
